Test system: cumulus-oocyte complexes
Test: Study IV: oocyte developmental competence after IVM, IVF and embryo culture
Format: cell-based, Bovine
Settings: for blastocyst yields with exogenous factor / effect on cleavage rate: Experiments 3 & 4; for blastocyst yields with exogenous factor: 175 ng/ml GDF9 or 10% v/v BMP15; for effect on cleavage rate: 4 μM SB-431542, 175 ng/ml GDF9, 10% v/v BMP15, 10% v/v 293H
Protocol: Unless otherwise specified, all chemicals and reagents were purchased from Sigma (St Louis, Mo.). Bovine ovaries were collected from local abattoirs and transported to the laboratory in warm saline (30-35° C.). COCs were aspirated from antral follicles (3 to 5 mm diameter) using an 18-gauge needle and a 10-ml syringe containing ˜2 ml aspiration medium (Hepes-buffered. Tissue Cultured Medium-199; TCM-199. ICN Biochemicals, Irvine, Calif., USA) supplemented with 50 μg/ml kanamycin, 0.5 mM sodium pyruvate, 50 μg/ml heparin and 4 mg/ml fatty acid-free bovine serum albumin (FAF-BSA; ICPbio Ltd, Aukland, NZ). Intact COCs with compact cumulus vestments>˜5 cell layers and evenly pigmented cytoplasm were selected under a dissecting microscope and washed twice in Hepes-buffered TCM-199 and once in Hepes-buffered TCM-199 supplemented with 10% fetal calf serim (FCS) (Invitrogen, Carlsbad, Calif.). The basic medium for oocyte maturation was Bovine VitroMat (Cook Australia, Eight Mile Plains, Qld, Australia), a medium based on the ionic composition of bovine follicular fluid. […] Complexes were cultured in pre-equilibrated 300 ? l drops overlaid with mineral oil and incubated at 39° C. with 5% CO2 in humidified air for 24 hour. […]
Recombinant mouse GDF9 and recombinant ovine BMP15 were produced and partially purified in-house as previously described using transfected 293 human embryonic kidney cell lines (293H) originally donated by O. Ritvos (University of Helsinki). Control conditioned medium (hereafter designated ‘293H’) was produced from untransfected 293H cells and subjected to the same chromatography procedures as GDF9 and BMP15 conditioned media.
Consequently, SB-431542 potently antagonizes the ALK 4/5 ligands; TGF-β1, the activins and GDF9, without affecting BMP signalling (Inman et al., 2002; Gilchrist et al., 2006). […] Follistatin-288 was generously donated by S. Shimasaki (University of California San Diego, USA) and we have previously shown that this binding protein antagonizes the bioactivities of native OSFs and recombinant BMP15 in CCs.
In vitro production of embryos was undertaken using defined, serum-free media (Bovine Vitro series of media, Cook Australia). Frozen semen from a single bull of proven fertility was used in all experiments. Briefly, thawed semen was layered over a discontinuous (45%: 90%) Percoll gradient (Amersham Bioscience) and centrifuged (RT) for 20-25 mins at 700 g. The supernatant was removed and the sperm pellet was washed with 500 μl Bovine VitroWash (Cook Australia) and centrifuged for a further 5 minutes at 200 g. Spermatozoa were resuspended with IVF medium (Bovine VitroFert, Cook Australia), then added to the fertilization media drops (Bovine VitroFert, supplemented with 0.01 mM heparin, 0.2 mM penicillamine and 0.1 mM hypotaurine) at a final concentration of 1×106 spermatozoa/ml. COCs were inseminated at a density of 10 μl of IVF medium per COC for 24 h, at 39° C. in 6% CO2 in humidified air.
CCs were removed by gentle pipetting 23-24 h post insemination and five presumptive zygotes were transferred into 20 μl drops of pre-equilibrated Cook Bovine VitroCleave medium (Cook Australia) and cultured under mineral oil at 38.5° C. in 7% O2, 6% CO2, balance N2, for five days (day 1 to day 5).
On Day 5, embryos were transferred in groups of 5-6 to 20 μl drops of pre-equilibrated Bovine VitroBlast (Cook Australia) at 38.5° C. overlaid with mineral oil and cultured to Day 8. Embryos were assessed for quality at Day 8 according to the definitions presented in the Manual of the International Embryo Transfer Society (Stringfellow, 1998) and were performed independently and blinded by an experienced bovine embryologist.
Cell counts were performed using a modified version of the technique described by (Fouladi-Nashta et al., 2005). […]

B1: BMP-15: Recombinant ovine BMP-15 produced in-house in transfected 293H cells, partially purified by hydrophobic interaction chromatography; dosed as % v/v (protein, UniProt Q9MZE2 269-393, looked up)
Bone morphogenetic protein 15: QAGSIASEVPGPSREHDGPESNQCSLHPFQVSFQQLGWDHWIIAPHLYTPNYCKGVCPRVLHYGLNSPNHAIIQNLVSELVDQNVPQPSCVPYKYVPISILLIEANGSILYKEYEGMIAQSCTCR
- enhancement of development to the blastocyst stage compared to 293H-treated COCs (10% v/v BMP15 during IVM): 30%
- enhancement of development to the blastocyst stage compared to control COCs (10% v/v BMP15 during IVM): 16%
- blastocyst yields with exogenous factor: increased blastocyst yields
- effect on cleavage rate: did not significantly alter cleavage rates

B2: GDF-9: Recombinant mouse GDF-9 produced in-house in transfected 293H cells, partially purified by HIC (protein, UniProt Q07105 307-441, looked up)
Growth/differentiation factor …: GQKAIRSEAKGPLLTASFNLSEYFKQFLFPQNECELHDFRLSFSQLKWDNWIVAPHRYNPRYCKGDCPRAVRHRYGSPVHTMVQNIIYEKLDPSVPRPSCVPGKYSPLSVLTIEPDGSIAYKEYEDMIATRCTCR
- blastocyst yield (Experiment 2, 175 ng/ml GDF9, with or without 10% v/v BMP15): increased (P<0.05) blastocyst yield compared to 293H-treated COCs, but not compared to COCs cultured alone
- blastocyst yields with exogenous factor: increased blastocyst yields
- effect on cleavage rate: did not significantly alter cleavage rates
